Data as given in patent publication US20250346904A1, “CCR5 and CD4 siRNA-TARGETED PHOSPHOLIPID NANOSOMES THERAPEUTICS FOR TREATMENT OF HIV-1 AND OTHER DISEASES” (priority 2024, published 2025).

Assays:
[1] = system: HIV-1RF virus (NIH ARP Cat #2804, dual-tropic); test: Knockdown by BFU assay on P4/R5 cells, HIV-1RF, log dilutions (RNA-I-47); assay type: cell-based; settings: Human immunodeficiency virus 1, P4/R5, each drug as part of the Raltegravir + Efavirenz cocktail, read-out: Inhibitory Dose 50 (ID50) of the cocktail
Procedure: MAGI P4/R5 cells carry the β-galactosidase gene under control of the HIV LTRs (Long Terminal Repeats). […] Briefly, 96 well plates of MAGI P4/R5 cells were infected with HIV-1 and fixed 2-3 days post infection with a fixative containing 1% formaldehyde and 0.2% glutaraldehyde. Fixed cells were washed with PBS (Phosphate Buffered Saline) and stained for β-galactosidase activity using X-gal at 1 mg/mL in PBS with 5 mM potassium ferricyanide and 5 mM potassium ferrocyanide as per published procedures. The cells were usually stained 3 hours to overnight, the number of blue foci counted under the microscope and reported as Blue Focus-forming Units (BFUs).
In this study (RNA-I-47), 8 siRNA nanosomal formulations and 2 controls were evaluated for HIV-1 inhibition on P4/R5 cells using the BFU assay. The test formulations were the same 3 CD4_siRNAs, 3 CCR5_siRNAs, RANTES protein alone and RANTES protein co-encapsulated with a CCR5_siRNA in phospholipid nanosomes, tested previously in RNA-I-50b and RNA-I-51. The HIV-1 virus used was NIH ARP Cat #2804, a member of a panel HIV-1RF viruses and is dual-tropic with the ability to infect both CCR5 and CXCR4 receptor expressing cells.
This study was similar to the previous studies with a few differences. […]

[2] = system: HIV-1 RF, NIH Cat #2804; test: Knockdown by BFU assay, HIV-1 RF, with and without lipofectamine (RNA-I-61); assay type: cell-based; settings: Naked (unencapsulated), Presence of Lipofectamine
Procedure: A knockdown study (RNA-I-61) of the 8 nanoencapsulated and the corresponding unencapsulated (naked) siRNA preparations along with two controls described in the previous experiments was performed using freshly reconstituted materials with HIV-1 RF, NIH Cat #2804, diluted to contain ˜100 Blue Focus forming Units (BFUs) per dose of inoculum. […] The objective of this experiment was to test a range of concentrations of the inhibitors to determine the ID50 for each preparation based on the siRNA content. Since the nanosomal materials were freshly reconstituted, they were recharacterized.
The reconstituted samples as well as the naked siRNA preparations were tested for virus infection inhibitory activity. The inhibition of infectivity was measured by counting the number of blue foci due to the induced B-galactosidase activity in the host MAGI P4/R5 cells by the infecting HIV. […] The number of BFUs for each treatment at various dilutions were used to calculate the % inhibition from the corresponding dilution for the Negative_siRNA samples. The inhibitor activity was also quantified by measuring the p24 antigen concentration in each of the wells.
Infectivity Assay by BFUs: The percent inhibitions obtained with various Nanosomal_siRNA formulations versus Negative_siRNA formulations in the presence of lipofectamine are listed in Table 12.
50% Inhibitory Dose (ID50) Values: The data from RNA quantification using gel analysis and the infectivity results were used to plot dose response curves and calculate the ID50 (a.k.a. Inhibitory Concentration that results in 50% inhibition, [IC50]) values.

Row | Molecule | IC50 [1] [nM] | Inhibition of BFUs by Naked_siRNA vs Negative_siRNA ([2]; treatment dilution 1) [%] | Inhibition of BFUs by Naked_siRNA vs Negative_siRNA ([2]; treatment dilution 5) [%] | Inhibition of BFUs by Naked_siRNA vs Negative_siRNA ([2]; treatment dilution 15) [%] | Inhibition of BFUs by Naked_siRNA vs Negative_siRNA ([2]; treatment dilution 45) [%] | Inhibition of BFUs by Naked_siRNA vs Negative_siRNA ([2]; treatment dilution 135) [%]
1 | O=C1Nc2ccc(Cl)cc2[C@@](C#CC2CC2)(C(F)(F)F)O1 [Efavirenz] | 0.16 |  |  |  |  | 
2 | RANTES: CCL5, a CC chemokine with a molecular weight of 7,900, natural ligand of CCR5; unencapsulated in Table 13 (protein, UniProt P13501 24-91, looked up, ends and bridges not checked) C-C motif chemokine 5: SPYSSDTTPCCFAYIARPLPRAHIKEYFYTSGKCSNPAVVFVTRKNRQVCANPEKKWVREYINSLEMS |  | 0 | 34 | 18 | 0 | 0
